The results in this text go back to US8697651B2, “Amyloid β fibrillogenesis-inhibiting peptide” (Kagoshima University, priority 2006, dated 2014).

The target of assay [1] is T1, Aβ oligomer or Aβ fibers (Aβ1-42) (Homo sapiens, UniProt P05067).
T1 construct: the Aβ1-42 peptide diluted to 40 μM using 20 mM phosphate buffer
Put plainly: Experiment of precipitation of Aβ conformers (Aβ oligomer and Aβ fibers) by biotinylated peptide with streptavidin-magnet beads, Western blot. Particulars: Aβ1-42 40 μM, 1.5 hours after dissolution, peptide 1:1, supernatant vs pellet (FIG. 9). The class given is binding. As to the method:
Aβ1-42 was dissolved at a concentration of 40 μM in 20 mM phosphate buffer, pH 7.0. At 1.5 hours later, the solution was reacted at 37° C. for 1 hour by the addition of the TAT-B6-L1 or TAT-B7-C15 peptide adjusted to 40 μM at a ratio of 1:1 by liquid volume (final concentration: Aβ [20 μM]/synthesized peptide [20 μM]). After reaction, an aliquot thereof was sampled as a sample before immunoprecipitation (“Before precipitation”), and the remaining sample was reacted with M-280 streptavidin-magnet beads (Dynal Biotech, Oslo, Norway) adjusted to 20 μg/μl on ice for 1 hour at a ratio of 1:1 by liquid volume (final concentration: Aβ [10 μM]/synthesized peptide [10 μM]/beads [10 μg/μl]). After reaction, the beads were precipitated using a magnet to obtain “Supernatant”. To the precipitated beads, PBS was added in a liquid volume equal to the collected supernatant to obtain “Pellet”. Each obtained sample was electrophoresed and subjected to Western blot analysis using anti-Aβ antibodies.
Aβ1-42 was dissolved at a concentration of 40 μM in 20 mM phosphate buffer, pH 7.0. At 1.5 hours later, the biotinylated TAT-B6-L1 or TAT-B7-C15 peptide was added thereto, and the conjugates were precipitated using streptavidin-magnet beads. Bands derived from Aβ oligomer, Aβ fibers, etc., could be confirmed before precipitation. Aβ oligomer or Aβ fibers were not confirmed in the supernatant from precipitation using the TAT-B6-L1 or TAT-B7-C15 peptide but could be confirmed in the pellet.
On the technique in general: Immunoblotting shows a protein as a band on a membrane.

A further assay concerns the target T2, Aβ1-42 peptide (Homo sapiens, UniProt P05067).
T2 construct: the Aβ1-42 peptide diluted to 40 μM using 20 mM phosphate buffer
Put plainly: Experiment of inhibition of amyloid β (Aβ1-42) fibrillogenesis, thioflavine T fluorescence. The class given is biochemical. The conditions noted are these: peptide 1.65, 16.5, 33 nM added to 40 μM Aβ1-42 in 20 mM phosphate buffer pH 7.0; 0, 6, 24 hours; thioflavine T fluorescence 482 nm (FIG. 8). The method, then: Examples of a method for examining whether or not the obtained peptide has an activity of inhibiting amyloid β fibrillogenesis include the thioflavine T (ThT) method (H. Levine, III, Protein Science […]: 404-410 (1993)).
The synthesized peptide (TAT-B6-L1, B6-L1-TAT, TAT-B7-C15, or TAT-B7-S15) was added at varying concentrations (1.65 nM, 16.5 nM, and 33 nM) to the Aβ1-42 peptide diluted to 40 μM using 20 mM phosphate buffer, pH 7.0. At 0, 6, and 24 hours later, 10 μl of a sample was collected. After addition of 90 μl of 11 μM thioflavine T (Sigma)/phosphate buffer, fluorescence intensity at 482 nm generated by excitation light at 450 nm was measured using a multilabel plate counter Wallac 1420 ARVO sx (Perkin-Elmer; Wellesley, Mass.).
Results of measuring an activity of inhibiting Aβ1-42 fibrillogenesis by fusion peptides of TAT and B6-L1, B7-C15, or B7-S15 are shown in FIG. 8. The experiment of inhibition of fibrillogenesis was conducted according to the procedures described in the experiment of inhibition of fibrillogenesis above.

The test system of the next assay is B6 scFv. Put plainly: ELISA: binding of B6 scFv to plate-coated synthesized TAT fusion peptide. Details: species or system human. Particulars: peptide coated 200 ng/well; B6 scFv at varying concentrations (FIG. 7). The text has this:
The B6-L1, B7-C15, and B7-S15 sequences having the TAT sequence fused at the amino terminus are referred to as TAT-B6-L1, TAT-B7-C15, and TAT-B7-S15, respectively. The B6-L1 sequence having the TAT sequence fused at the carboxyl terminus is referred to as B6-L1-TAT. The TAT sequence is a peptide sequence having the function of passing through the blood-brain barrier (P. Jarver and Ulo Langel, The use of cell-penetrating peptides as a tool for gene regulation, DDT, 9: 395-402, 2004). These peptides were biotinylated at their amino termini. Binding of the peptides was quantified using avidin labeled with an enzyme.
(5) The fusion peptide of TAT and B6-L1 was recognized by B6 scFv (FIG. 7). An ELISA plate was coated with the synthesized peptide TAT-B6-L1 or B6-L1-TAT under conditions of 200 ng/well. After addition of B6 scFv at varying concentrations, its binding activity was studied. A control peptide used was an unrelated peptide (GSGGGSCGYWRSEWGLCG (SEQ ID NO: 34)). […] (6) Activity of Inhibiting Aβ1-42 Fibrillogenesis by Fusion Peptide of TAT and B6-L1, B7-C15, or B7-S15
For orientation: An ELISA detects its analyte on a solid surface through an enzyme-linked reagent.

No end group written: not given here. *: point of attachment. Biotin = O=C1N[C@H]2[C@H](CS[C@H]2CCCCC(=O)*)N1

T1 sequence (P05067 672-713 limits assumed): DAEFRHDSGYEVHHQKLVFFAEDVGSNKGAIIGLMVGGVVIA
T2 sequence (P05067 672-713 limits assumed): as above
Sequence of B6 scFv (as listed by the source): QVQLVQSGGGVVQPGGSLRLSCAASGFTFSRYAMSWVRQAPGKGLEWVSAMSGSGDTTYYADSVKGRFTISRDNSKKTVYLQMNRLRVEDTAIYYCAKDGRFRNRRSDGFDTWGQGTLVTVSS
Sequence of B6 scFv (as listed by the source): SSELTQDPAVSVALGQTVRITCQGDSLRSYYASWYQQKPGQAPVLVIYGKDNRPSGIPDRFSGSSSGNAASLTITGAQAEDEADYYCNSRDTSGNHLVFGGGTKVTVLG

For the substance “TAT-B6-L1: B6-L1 sequence having the TAT sequence fused at the amino terminus; SEQ ID NO: 24 (Biotin-YGRKKRRQRRRGMLDIFAPIRHV)”, in assay [1], the “binding/precipitation of Aβ oligomer or Aβ fibers by the peptide” value is given as “Aβ oligomer or Aβ fibers formed on 1.5 hours after dissolution of Aβ1-42 bind to the TAT-B6-L1 or TAT-B7-C15 peptide”. Also, the “activity of inhibiting Aβ1-42 fibrillogenesis” value in the assay with Aβ1-42 peptide is given as “demonstrated to have the activity of inhibiting fibrillogenesis”. Further, in the assay on B6 scFv, the “binding of B6 scFv to the coated peptide” value is “Binding reaction dependent on the amount of B6 scFv was confirmed”.
With “B6-L1-TAT: B6-L1 sequence having the TAT sequence fused at the carboxyl terminus; SEQ ID NO: 25 (Biotin-GMLDIFAPIRHVYGRKKRRQRRR)”, in the assay with Aβ1-42 peptide, the “activity of inhibiting Aβ1-42 fibrillogenesis” value is listed as “demonstrated to have the activity of inhibiting fibrillogenesis”. The “binding of B6 scFv to the coated peptide” value with B6 scFv is “Binding reaction dependent on the amount of B6 scFv was confirmed”.
On to “TAT-B7-S15: B7-S15 sequence having the TAT sequence fused at the amino terminus; SEQ ID NO: 27 (Biotin-YGRKKRRQRRRSYGTKPWMSG)”, for which the “activity of inhibiting Aβ1-42 fibrillogenesis” value with Aβ1-42 peptide is recorded as “demonstrated to have the activity of inhibiting fibrillogenesis”.
On to “GSGGGSCGYWRSEWGLCG [control peptide, reference compound]”, for which the “binding/precipitation of Aβ oligomer or Aβ fibers by the peptide” value in assay [1] is listed as “no confirmed precipitation reaction”. Also, the “activity of inhibiting Aβ1-42 fibrillogenesis” value with Aβ1-42 peptide was “exhibited no inhibiting activity”.
Taken in the same sequence, the figures for “TAT-B7-C15: B7-C15 sequence (glycine added to carboxyl terminus) having the TAT sequence fused at the amino terminus; SEQ ID NO: 26 (Biotin-YGRKKRRQRRRCYGTKPWMCG; cysteine pairing not given here)” were “Aβ oligomer or Aβ fibers formed on 1.5 hours after dissolution of Aβ1-42 bind to the TAT-B6-L1 or TAT-B7-C15 peptide” and “demonstrated to have the activity of inhibiting fibrillogenesis”.
